In US20250312452A1 (BRISTAR IMMUNOTECH, published 2025):
Each block holds one binder with its values, some of them ahead of it.

Key:
MSLN = target: T1, MSLN (UniProt Q13421 296-580, limits assumed); assay: BLI affinity detection
T1 construct: also called mesothelin

[1] = target: human Claudin18.2 expressed on cells (human) (UniProt P56856); assay: flow cytometry on SNU1-hClaudin18.2 cells
[2] = target: T2, Human Claudin18.2 His tag protein (human, UniProt P56856-2 1-261, limits assumed); assay: BLI (Octet), antibody on Protein A biosensor
T2 construct: also called Claudin18.2 protein; not shown: His tag
T2 sequence (looked up): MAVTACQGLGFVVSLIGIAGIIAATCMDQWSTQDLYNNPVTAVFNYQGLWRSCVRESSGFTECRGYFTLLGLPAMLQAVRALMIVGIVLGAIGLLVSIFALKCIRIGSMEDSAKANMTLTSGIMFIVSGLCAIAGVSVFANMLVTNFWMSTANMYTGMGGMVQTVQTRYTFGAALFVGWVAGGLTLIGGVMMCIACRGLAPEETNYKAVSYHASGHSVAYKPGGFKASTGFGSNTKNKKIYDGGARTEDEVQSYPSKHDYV
Experimental: The affinity of Claudin18.2 nanobodies was determined. The affinity of the antibodies was measured using the Fortebio Octet® detection instrument based on the biolayer interferometry (BLI) technique.
After the 5 antibodies were immobilized on the Protein A biosensor, the antibodies could bind to the Human Claudin18.2 His tag protein. The measured affinity was calculated using Data Analysis 11 software of the Octet RED96e (ForteBio). The affinities (KD values) of antibody NCLD04 and antibody NCLD31 for the Claudin18.2 protein are both favorable.

[3] = target: human Claudin18.2 expressed on cells (human) (UniProt P56856); assay: flow cytometry on SNU1-hClaudin18.2 cells, APC anti-human IgG Fc secondary antibody
Claudin18.2 protein = target: T3, Claudin18.2 protein (UniProt P56856-2 1-261, limits assumed); assay: flow cytometry of STAR-T cells stained with Claudin18.2 protein
T3 sequence (looked up): T2 sequence (looked up)
Source text: The above-mentioned vectors were used to package lentiviruses and infect T cells. After one week of culture, the expression levels of STAR and Claudin18.2 on the cells were detected by flow cytometry.
Specifically, the expression of the Claudin18.2 antibody in the STAR structure on the cell membrane was detected by staining with the Claudin18.2 Protein antibody, and the positive rate of STAR vector infection was detected by mTCRβ. […] The protein binding of NCR8020-NCLD04α-STAR and NCLD04 STAR is relatively good, exceeding 55%. Both MND-NCLD04β-NCR802a STAR-mL15 and MND-NCR8020-NCLD04α STAR-mL15 can be successfully expressed on the membrane.

T1 sequence (Q13421 other isoform, or with tags, fused parts or gaps limits assumed): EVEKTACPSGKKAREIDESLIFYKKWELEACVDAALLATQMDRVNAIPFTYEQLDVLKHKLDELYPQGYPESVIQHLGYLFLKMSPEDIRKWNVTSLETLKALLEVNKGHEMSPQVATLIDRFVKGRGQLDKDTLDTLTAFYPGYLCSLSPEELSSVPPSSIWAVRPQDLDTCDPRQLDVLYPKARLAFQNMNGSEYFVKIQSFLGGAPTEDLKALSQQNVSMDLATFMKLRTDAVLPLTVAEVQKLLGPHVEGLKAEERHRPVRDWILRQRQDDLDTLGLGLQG

- Kd (MSLN): 11.4 nM
B1: NM5 (VHH)
VHH: DVQLQESGGGLVQAGGSLRLSCVGAGVSFSPYGIGWWRQAQGNQREWVASIYRSGSTNYEDFAKDRFTISRDNTKNTAYLQMNSLKPEDTAVYYCQILGTSYRGQGTQVTVSS
notes: also called nanobody NM5; NM5 antibody

- EC50 [1]: 21 nM
- Kd [2]: 72.6 nM
- koff [2]: 0.00456 s⁻¹
- kon [2]: 62900 M⁻¹ s⁻¹
- EC50 (read off the curve) [3]: 3 nM
B2: NCLD14 (VHH-IgG1 Fc) (Fc fusion)
chain: DVQLQESGGGLVQPGGSLRLSCATSGFTFSTYNMGWFRQAPGKEREFVGSIKWSASTTYYADSVKGRFTISRDNAKNTVYLQMNSLKPEDTAIYYCAGSPHIALGTRTEMYPYWGQGTQVTVSS
notes: Tested as VHH-IgG1 Fc; also called antibody NCLD14; not shown: IgG1 Fc fused to the VHH

- protein binding (percent of cells) (Claudin18.2 protein): > 55%
B3: NCLD04-STAR (NCLD04β-STAR-a(G4S)3OX40(gh)) (other)
chain 1: DVQLQESGGGLVQPGGSLRLSCTASGLTFNDYAVSWLRQAPGKEREFVATIRGSGGVTNYGASAEGRFIISRENAENTVYLQMNSLKSEDTAVYYCNARPLFGWSEEYWGQGTQVTVSSEDLRNVTPPKVSLFEPSKAEIANKQKATLVCLARGFFPDHVELSWWVNGKEVHSGVCTDPQAYKESNYSYCLSSRLRVSATFWHNPRNHFRCQVQFHGLSEEDKWPEGSPKPVTQNISAEAWGRADCGITSASYQQGVLSATILYEILLGKATLYAVLVSTLVVMAMVKRKNS
chain 2: DIQNPEPAVYQLKDPRSQDSTLCLFTDFDSQINVPKTMESGTFITDKCVLDMKAMDSKSNGAIAWSNQTSFTCQDIFKETNATYPSSDVPCDATLTEKSFETDMNLNFQNLLVIVLRILLLKVAGFNLLMTLRLWGGGGSGGGGSGGGGSRRDQRLPPDAHKPPGGGSFRTPIQEEQADAHSTLAKI
notes: Synthetic T-cell receptor and antigen receptor on T cells; NCLD04 VHH on the beta constant region; also called NCLD04-STAR-T
